Data from publication PMC9482650, “Quantitative fragmentomics allow affinity mapping of interactomes” (Nature Communications, 2022).

What was measured:
Experiment in all cases: holdup assay
Set-up in all cases: key: below the threshold = too weak to quantify, mostly under pKd 3.1 to 4
Details in all cases: plain residues with an end cap or a label only (N-terminal biotin on a linker: ado-ado)
APBA1_1, Q02410 = molecular target: T1, APBA1_1, Q02410
T1 sequence (Q02410 651-752, limits assumed, looked up): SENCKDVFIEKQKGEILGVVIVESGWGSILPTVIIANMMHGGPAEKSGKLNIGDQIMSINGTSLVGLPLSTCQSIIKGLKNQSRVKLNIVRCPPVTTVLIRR

APBA1_2, Q02410 = molecular target: T2, APBA1_2, Q02410
T2 sequence (Q02410 742-832, limits assumed, looked up): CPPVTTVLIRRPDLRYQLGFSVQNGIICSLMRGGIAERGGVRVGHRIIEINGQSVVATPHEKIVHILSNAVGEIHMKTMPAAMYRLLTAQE

ARHGAP21, Q5T5U3 = molecular target: T3, ARHGAP21, Q5T5U3
T3 sequence (Q5T5U3 45-169, limits assumed, looked up): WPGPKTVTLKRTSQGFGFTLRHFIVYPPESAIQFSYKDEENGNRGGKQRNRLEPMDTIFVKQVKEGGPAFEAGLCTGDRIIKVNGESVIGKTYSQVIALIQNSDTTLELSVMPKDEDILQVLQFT

ARHGEF11, O15085 = molecular target: T4, ARHGEF11, O15085
T4 sequence (O15085 42-136, limits assumed, looked up): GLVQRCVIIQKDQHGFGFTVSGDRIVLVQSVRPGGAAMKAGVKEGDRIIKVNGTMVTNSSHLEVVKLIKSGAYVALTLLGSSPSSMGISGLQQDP

DLG2_3, Q15700 = molecular target: DLG2_3, Q15700
DLG4_1, P78352 = molecular target: DLG4_1, P78352
FRMPD2_1, Q68DX3 = molecular target: FRMPD2_1, Q68DX3
FRMPD2_2, Q68DX3 = molecular target: FRMPD2_2, Q68DX3
GRID2IP_1, A4D2P6 = molecular target: GRID2IP_1, A4D2P6
Inadl_2, Q8NI35 = molecular target: Inadl_2, Q8NI35
Inadl_4, Q8NI35 = molecular target: Inadl_4, Q8NI35
Inadl_8, Q8NI35 = molecular target: Inadl_8, Q8NI35
LDB3, O75112 = molecular target: LDB3, O75112
LIN7C, Q9NUP9 = molecular target: T5, LIN7C, Q9NUP9
T5 sequence (Q9NUP9 88-185, limits assumed, looked up): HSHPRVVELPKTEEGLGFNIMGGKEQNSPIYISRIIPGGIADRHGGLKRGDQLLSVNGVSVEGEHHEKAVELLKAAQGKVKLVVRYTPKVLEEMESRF

LNX2_3, Q8N448 = molecular target: T6, LNX2_3, Q8N448
T6 sequence (Q8N448 463-564, limits assumed, looked up): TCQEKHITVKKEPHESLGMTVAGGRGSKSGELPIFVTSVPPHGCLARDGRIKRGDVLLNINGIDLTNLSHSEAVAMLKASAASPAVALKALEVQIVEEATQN

LRRC7, Q96NW7 = molecular target: T7, LRRC7, Q96NW7
T7 sequence (Q96NW7 1440-1537, limits assumed, looked up): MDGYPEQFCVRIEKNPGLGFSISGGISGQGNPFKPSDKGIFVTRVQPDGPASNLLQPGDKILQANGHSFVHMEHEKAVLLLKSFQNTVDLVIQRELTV

MAGI2_3, Q86UL8 = molecular target: MAGI2_3, Q86UL8
MAGI2_4, Q86UL8 = molecular target: MAGI2_4, Q86UL8
MAGI3_2, Q5TCQ9 = molecular target: MAGI3_2, Q5TCQ9
NHERF4_1, Q86UT5-2 = molecular target: NHERF4_1, Q86UT5-2
NHERF4_2, Q86UT5 = molecular target: NHERF4_2, Q86UT5
PARD3_3, Q8TEW0 = molecular target: PARD3_3, Q8TEW0
PDLIM1, O00151 = molecular target: PDLIM1, O00151
PTPN3, P26045 = molecular target: PTPN3, P26045
RAPGEF6, Q8TEU7 = molecular target: T8, RAPGEF6, Q8TEU7
T8 sequence (Q8TEU7 525-625, limits assumed, looked up): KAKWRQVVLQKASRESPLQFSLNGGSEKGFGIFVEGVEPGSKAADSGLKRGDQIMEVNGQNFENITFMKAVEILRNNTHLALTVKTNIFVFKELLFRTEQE

SCRIB_2, Q14160 = molecular target: SCRIB_2, Q14160
SHANK1, Q9Y566 = molecular target: T9, SHANK1, Q9Y566
T9 sequence (Q9Y566 658-767, limits assumed, looked up): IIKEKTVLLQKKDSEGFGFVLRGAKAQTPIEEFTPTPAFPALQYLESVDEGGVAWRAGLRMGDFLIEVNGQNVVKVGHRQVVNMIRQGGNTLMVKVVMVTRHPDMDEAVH

TJP3_3, O95049 = molecular target: T10, TJP3_3, O95049
T10 sequence (O95049 375-456, limits assumed, looked up): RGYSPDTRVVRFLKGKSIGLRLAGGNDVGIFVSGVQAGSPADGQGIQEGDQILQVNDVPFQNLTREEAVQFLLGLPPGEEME

NHERF4_1, Q86UT5-2, sequence (Q86UT5 other isoform, or with tags, fused parts or gaps): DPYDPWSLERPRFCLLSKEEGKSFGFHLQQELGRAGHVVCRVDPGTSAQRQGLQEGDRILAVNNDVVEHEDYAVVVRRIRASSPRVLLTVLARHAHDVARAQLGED
NHERF4_2, Q86UT5, sequence (Q86UT5 220-308): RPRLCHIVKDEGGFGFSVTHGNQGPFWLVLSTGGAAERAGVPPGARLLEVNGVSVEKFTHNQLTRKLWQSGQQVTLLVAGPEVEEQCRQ
MAGI2_3, Q86UL8, sequence (Q86UL8 600-682): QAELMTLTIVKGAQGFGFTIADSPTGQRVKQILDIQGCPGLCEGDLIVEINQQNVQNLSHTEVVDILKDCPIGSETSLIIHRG
GRID2IP_1, A4D2P6, sequence (A4D2P6 1-87): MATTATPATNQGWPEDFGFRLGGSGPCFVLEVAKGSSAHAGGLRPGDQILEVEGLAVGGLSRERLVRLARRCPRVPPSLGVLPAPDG
PARD3_3, Q8TEW0, sequence (Q8TEW0 582-685): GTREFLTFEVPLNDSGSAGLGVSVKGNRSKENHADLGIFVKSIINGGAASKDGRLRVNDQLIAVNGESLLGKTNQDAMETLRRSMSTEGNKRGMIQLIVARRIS
MAGI2_4, Q86UL8, sequence (Q86UL8 772-865): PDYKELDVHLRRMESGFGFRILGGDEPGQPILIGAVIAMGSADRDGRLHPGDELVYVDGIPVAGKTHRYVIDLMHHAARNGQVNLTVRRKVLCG
MAGI3_2, Q5TCQ9, sequence (Q5TCQ9 398-503): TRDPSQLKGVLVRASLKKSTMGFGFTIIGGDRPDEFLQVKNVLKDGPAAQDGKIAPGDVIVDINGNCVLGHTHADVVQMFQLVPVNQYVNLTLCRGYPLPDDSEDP
PDLIM1, O00151, sequence (O00151 1-87): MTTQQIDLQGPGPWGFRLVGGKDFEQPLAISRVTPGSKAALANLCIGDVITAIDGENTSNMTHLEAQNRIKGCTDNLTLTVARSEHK
Inadl_2, Q8NI35, sequence (Q8NI35 238-335): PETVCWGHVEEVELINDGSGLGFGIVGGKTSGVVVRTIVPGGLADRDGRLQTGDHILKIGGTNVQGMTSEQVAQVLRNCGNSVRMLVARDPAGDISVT
PTPN3, P26045, sequence (P26045 505-587): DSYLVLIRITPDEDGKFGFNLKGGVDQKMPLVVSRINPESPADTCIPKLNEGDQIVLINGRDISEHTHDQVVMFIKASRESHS
SCRIB_2, Q14160, sequence (Q14160 857-960): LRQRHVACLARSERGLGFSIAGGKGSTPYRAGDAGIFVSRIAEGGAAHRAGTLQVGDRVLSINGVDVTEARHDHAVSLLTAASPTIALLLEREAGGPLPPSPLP
FRMPD2_2, Q68DX3, sequence (Q68DX3 944-1038): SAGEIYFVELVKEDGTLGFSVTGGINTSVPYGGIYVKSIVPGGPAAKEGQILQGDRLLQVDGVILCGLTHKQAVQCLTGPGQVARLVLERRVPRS
FRMPD2_1, Q68DX3, sequence (Q68DX3 770-861): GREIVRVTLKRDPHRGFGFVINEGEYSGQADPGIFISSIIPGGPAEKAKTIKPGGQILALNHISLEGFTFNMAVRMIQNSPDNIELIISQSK
Inadl_4, Q8NI35, sequence (Q8NI35 547-651): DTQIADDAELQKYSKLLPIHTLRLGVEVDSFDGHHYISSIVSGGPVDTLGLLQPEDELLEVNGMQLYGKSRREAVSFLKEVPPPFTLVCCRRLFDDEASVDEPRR
Inadl_8, Q8NI35, sequence (Q8NI35 1425-1530): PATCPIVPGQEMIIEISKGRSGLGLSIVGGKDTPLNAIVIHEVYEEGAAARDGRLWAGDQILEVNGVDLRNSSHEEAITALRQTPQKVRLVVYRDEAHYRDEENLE
DLG4_1, P78352, sequence (P78352 62-152): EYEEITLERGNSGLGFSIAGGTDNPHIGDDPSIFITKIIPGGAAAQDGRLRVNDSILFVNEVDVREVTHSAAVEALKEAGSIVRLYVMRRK
LDB3, O75112, sequence (O75112 1-94): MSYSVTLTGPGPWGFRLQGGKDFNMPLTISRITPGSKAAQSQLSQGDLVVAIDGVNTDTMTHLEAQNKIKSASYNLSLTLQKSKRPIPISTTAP

B1: DUSP5, Q16690 (peptide)
chain: RSPVATATSC
- pKd (APBA1_1, Q02410): below the threshold
- pKd (APBA1_2, Q02410): below the threshold
- pKd (ARHGAP21, Q5T5U3): below the threshold
- pKd (ARHGEF11, O15085): below the threshold
- pKd (DLG2_3, Q15700): 3.7
- pKd (DLG4_1, P78352): below the threshold
- pKd (FRMPD2_1, Q68DX3): below the threshold
- pKd (FRMPD2_2, Q68DX3): below the threshold
- pKd (GRID2IP_1, A4D2P6): below the threshold
- pKd (Inadl_2, Q8NI35): below the threshold
- pKd (Inadl_4, Q8NI35): below the threshold
- pKd (Inadl_8, Q8NI35): below the threshold
- pKd (LDB3, O75112): below the threshold
- pKd (LIN7C, Q9NUP9): below the threshold
- pKd (LNX2_3, Q8N448): below the threshold
- pKd (LRRC7, Q96NW7): below the threshold
- pKd (MAGI2_3, Q86UL8): below the threshold
- pKd (MAGI2_4, Q86UL8): below the threshold
- pKd (MAGI3_2, Q5TCQ9): below the threshold
- pKd (NHERF4_1, Q86UT5-2): 3.59
- pKd (NHERF4_2, Q86UT5): below the threshold
- pKd (PARD3_3, Q8TEW0): below the threshold
- pKd (PDLIM1, O00151): below the threshold
- pKd (PTPN3, P26045): 4.05
- pKd (RAPGEF6, Q8TEU7): below the threshold
- pKd (SCRIB_2, Q14160): below the threshold
- pKd (SHANK1, Q9Y566): 3.55
- pKd (TJP3_3, O95049): below the threshold

B2: GAS2L2, Q8NHY3 (peptide)
chain: PLPPEEESWV
- pKd (APBA1_1, Q02410): below the threshold
- pKd (APBA1_2, Q02410): 5.02
- pKd (ARHGAP21, Q5T5U3): 4.15
- pKd (ARHGEF11, O15085): 4.46
- pKd (DLG2_3, Q15700): 3.86
- pKd (DLG4_1, P78352): 4.03
- pKd (FRMPD2_1, Q68DX3): below the threshold
- pKd (FRMPD2_2, Q68DX3): 6.16
- pKd (GRID2IP_1, A4D2P6): below the threshold
- pKd (Inadl_2, Q8NI35): 4.17
- pKd (Inadl_4, Q8NI35): below the threshold
- pKd (Inadl_8, Q8NI35): 3.8
- pKd (LDB3, O75112): below the threshold
- pKd (LIN7C, Q9NUP9): 3.77
- pKd (LNX2_3, Q8N448): below the threshold
- pKd (LRRC7, Q96NW7): 4.96
- pKd (MAGI2_3, Q86UL8): 4.13
- pKd (MAGI2_4, Q86UL8): 4.07
- pKd (MAGI3_2, Q5TCQ9): 4.38
- pKd (NHERF4_1, Q86UT5-2): below the threshold
- pKd (NHERF4_2, Q86UT5): below the threshold
- pKd (PARD3_3, Q8TEW0): 4.75
- pKd (PDLIM1, O00151): 4.22
- pKd (PTPN3, P26045): 4.75
- pKd (RAPGEF6, Q8TEU7): 3.6
- pKd (SCRIB_2, Q14160): 4.94
- pKd (SHANK1, Q9Y566): 4.62
- pKd (TJP3_3, O95049): 4.98

B3: FAM71C, Q8NEG0 (peptide)
chain: STYCDYTIEI
- pKd (APBA1_1, Q02410): below the threshold
- pKd (APBA1_2, Q02410): below the threshold
- pKd (ARHGAP21, Q5T5U3): 4.13
- pKd (ARHGEF11, O15085): 4
- pKd (DLG2_3, Q15700): below the threshold
- pKd (DLG4_1, P78352): below the threshold
- pKd (FRMPD2_1, Q68DX3): below the threshold
- pKd (FRMPD2_2, Q68DX3): below the threshold
- pKd (GRID2IP_1, A4D2P6): below the threshold
- pKd (Inadl_2, Q8NI35): 3.51
- pKd (Inadl_4, Q8NI35): below the threshold
- pKd (Inadl_8, Q8NI35): below the threshold
- pKd (LDB3, O75112): below the threshold
- pKd (LIN7C, Q9NUP9): below the threshold
- pKd (LNX2_3, Q8N448): below the threshold
- pKd (LRRC7, Q96NW7): below the threshold
- pKd (MAGI2_3, Q86UL8): below the threshold
- pKd (MAGI2_4, Q86UL8): below the threshold
- pKd (MAGI3_2, Q5TCQ9): below the threshold
- pKd (NHERF4_1, Q86UT5-2): below the threshold
- pKd (NHERF4_2, Q86UT5): 3.51
- pKd (PARD3_3, Q8TEW0): 5.15
- pKd (PDLIM1, O00151): below the threshold
- pKd (PTPN3, P26045): 4.16
- pKd (RAPGEF6, Q8TEU7): below the threshold
- pKd (SCRIB_2, Q14160): below the threshold
- pKd (SHANK1, Q9Y566): below the threshold
- pKd (TJP3_3, O95049): below the threshold
